Reference: patent US10314925B2, “Thymidine kinase” (priority 2004, dated 2019)

Columns and labels:
HSV-tk [1] = assay: PCR of genomic DNA from transduced CEM A301 cells; assay type: cell-based, HSV-1
Description: (§1) CEM A301 cells were cultured in RPMI 1640 (Hyclone) supplemented with 10% FBS (Hyclone) and 2 mM glutamine. CEM A301 cells were infected with Am12 culture supernatant containing SFCMM-3 HSV-tk mutants 2 and 234. The day before transduction 5×10^5 cells/ml were cultured. Transduction was then performed by one centrifugation cycle of retroviral vector particles on cells. After the transduction phase, cells were collected and the percentage of actually transduced cells evaluated by FACS analysis. PBLs from three different donors were transduced (as described in Materials and Methods section of Example 2) with Am12 supernatant containing SFCMM-3 HSV-tk mutant 2 as well as SFCMM-3.
(§2) The transduced cells were then sorted for ΔLNGFR expression and expanded a few days in culture.
One pellet for PCR analysis was prepared from the transduced non selected cells as well as from transduced selected cells as described in Materials and Methods section of Example 2. Genomic DNA was extracted from pellet cells and PCR reaction was carried out with TKA1 and TKB1 or TKY1 and TKY2 or TKZ1 and TKZ2 primers (as indicated in the table below) in a 25 μl reaction mixture containing 100-500 ng of genomic DNA, 1×PCR Buffer with 1.5 mM of MgCl2 (Applied Biosystems), […] of each dNTPs, 300 nM of each primer, 1.25 Units of AmpliTaq Gold (Applied Biosystems). The PCR cycling profile consisted of a first denaturation step for 15 min at 94° C. followed by 40 cycles with denaturation for 30 s at 94° C., annealing for 50 s at 60° C. and extension for 1 min at 72° C., and one final extension step of 10 min at 72° C., […] Ten microliters of amplified product were analyzed by agarose gel electrophoresis.

HSV-tk [2] = assay: RT-PCR of HSV-tk mutants, RNA from Am12 supernatants; parameters: species or system HSV-1
Text: After sequence confirmation of SFCMM-3 HSV-tk mutants (FIGS. 1A-1C), one plasmid clone of each type was used to transiently transfect E86 cells. SFCMM-3 and TK3 plasmids were used as controls. The supernatant was collected from the E86 cultures and used to stably transduce the amphotropic packaging cell line Am12 as described in Materials and Methods section of Example 2. The resulting cell populations were selected for ΔLNGFR expression.
RNA was extracted from the E86 as well as Am12 culture supernatants containing infectious retroviral particles. RT-PCR reactions were carried out on RNA from E86 and Am12 supernatants using TKA1 and TKB1 primers according to the protocol described in Materials and Methods section of Example 2.

HSV-tk [3] = assay: PCR of genomic DNA from transduced PBLs of three donors; assay type: cell-based, HSV-1; conditions: TKA1/TKB1 primers
Description: as §1, §2
One pellet for PCR analysis was prepared from the transduced non selected cells as well as from transduced selected cells as described in Materials and Methods section of Example 2. […] Ten microliters of amplified product were analyzed by agarose gel electrophoresis.

B1: TkMut2 (nucleic acid)
DNA: ATGGCTTCGTACCCCTGCCATCAACACGCGTCTGCGTTCGACCAGGCTGCGCGTTCTCGCGGCCATAGCAACCGACGTACGGCGTTGCGCCCTCGCCGGCAGCAAGAAGCCACGGAAGTCCGCCTGGAGCAGAAAATGCCCACGCTACTGCGGGTTTATATAGACGGTCCTCACGGGATGGGGAAAACCACCACCACGCAACTGCTGGTGGCCCTGGGTTCGCGCGACGATATCGTCTACGTACCCGAGCCGATGACTTACTGGCAGGTGCTGGGGGCTTCCGAGACAATCGCGAACATCTACACCACACAACACCGCCTCGACCAGGGCGAGATATCGGCCGGGGACGCGGCGGTGGTAATGACAAGCGCCCAGATAACAATGGGCATGCCTTATGCCGTGACCGACGCCGTTCTGGCTCCTCATGTCGGGGGGGAGGCTGGGAGTTCACATGCCCCGCCCCCGGCCCTCACCCTCATCTTCGACCGCCATCCCATCGCCGCCCTCCTGTGCTACCCGGCCGCGCGATACCTTATGGGCAGCATGACCCCCCAGGCCGTGCTGGCGTTCGTGGCCCTCATCCCGCCGACCTTGCCCGGCACAAACATCGTGTTGGGGGCCCTTCCGGAGGACAGACACATCGACCGCCTGGCCAAACGCCAGCGCCCCGGCGAGCGGCTTGACCTGGCTATGCTGGCCGCGATTCGCCGCGTTTACGGGCTGCTTGCCAATACGGTGCGGTATCTGCAGGGCGGCGGGTCGTGGTGGGAGGATTGGGGACAGCTTTCGGGGACGGCCGTGCCGCCCCAGGGTGCCGAGCCCCAGAGCAACGCGGGCCCACGACCCCATATCGGGGACACGTTATTTACCCTGTTTCGGGCCCCCGAGTTGCTGGCCCCCAACGGCGACCTGTATAACGTGTTTGCCTGGGCCTTGGACGTCTTGGCCAAACGCCTCCGTCCCATGCACGTCTTTATCCTGGATTACGACCAATCGCCCGCCGGCTGCCGGGACGCCCTGCTGCAACTTACCTCCGGGATGGTCCAGACCCACGTCACCACCCCAGGCTCCATACCGACGATCTGCGACCTGGCGCGCACGTTTGCCCGGGAGATGGGGGAGGCTAACTGA
modifications: HSV-1 thymidine kinase mutant sequence.
lower band (spliced form of HSV-tk gene) (HSV-tk [1]; CEM A301, TKA1/TKB1 primers, before and after selection): No lower band is observed | lower band (spliced form of HSV-tk gene) (HSV-tk [1]; CEM A301, TKY1/TKY2 and TKZ1/TKZ2 primers): No lower band is observed | additional bands (HSV-tk [2]): two very weak bands of approximately 100 and 200 bp are detected | lower band (spliced form) (HSV-tk [2]; TKA1/TKB1 primers): not detected | lower band (spliced form of HSV-tk gene) (HSV-tk [3]): No lower band is observed
